# Publication PMC2628428 (Molecular Microbiology, 2008)
# Target: the molecule itself
# Experiment: cross-linking
protein,measurement,value
"CetB (natural protein, UniProt Q0P967 1-165, looked up) MSREIFLQEDSLITSKTDLKGKIVYANDDFLKYAGYTMGEVLNKPHNIVRHEEMPKTVFKYLWDYMKEGKEIFAYVKNKTKDNNYYWVFANVTPSIDVNNNIIGYYSVRRMPNKSAISTIESLYSDLLRAEQQQGLNKGVEMLKNFCKDADKTYNELIFSLQEAK",stoichiometry N,2
